According to patent US20040143095A1:
Where no end group is shown, it is not given here.

Key:
[1] = target: endogenous CRF-R2β of A7r5 rat aortic smooth muscle cells (rat), P47866; experiment: cell-based or functional assay
[2] = target: rat CRF receptor type 2α (rat) (UniProt P47866); experiment: radioligand displacement ([125I-Tyr0,Glu1,Nle17]-sauvagine), CHO membranes
[3] = target: mouse CRF receptor type 2β (mouse) (UniProt Q60748); experiment: as above

Sequence of rat CRF receptor type 2α (rat) (P47866 20-411): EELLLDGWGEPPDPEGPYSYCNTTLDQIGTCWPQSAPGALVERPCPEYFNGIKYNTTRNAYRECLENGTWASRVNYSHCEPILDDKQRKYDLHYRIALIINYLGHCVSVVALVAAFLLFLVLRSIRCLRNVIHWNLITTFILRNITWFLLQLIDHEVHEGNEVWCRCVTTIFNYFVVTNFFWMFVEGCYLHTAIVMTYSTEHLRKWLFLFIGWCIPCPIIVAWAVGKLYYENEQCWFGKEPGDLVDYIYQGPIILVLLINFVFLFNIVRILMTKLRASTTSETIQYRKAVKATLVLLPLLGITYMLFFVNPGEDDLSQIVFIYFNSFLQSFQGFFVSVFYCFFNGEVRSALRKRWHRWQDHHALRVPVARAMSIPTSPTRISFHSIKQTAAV
Sequence of endogenous CRF-R2β of A7r5 rat aortic smooth muscle cells (rat), P47866 (P47866 20-411): as above

Row | Binder | cAMP accumulation in A7r5 rat aortic smooth muscle cells, EC50 [1] | Ki [2] | Ki [3]
1 | FTLSLDVPTNIMNLLFNIAKAKNLRAQAAANAHLMAQI-NH2 [Urocortin III (human)] | 80.9 nM | 21.7 nM | 13.5 nM
2 | FTLSLDVPTNIMNILFNIDKAKNLRAKAAANAQLMAQI-NH2 [Urocortin III (mouse)] | 3.7 nM | 5 nM | 1.8 nM
3 | VILSLDVPIGLLRILLEQARYKAARNQAATNAQILAHV (peptide, UniProt Q99ML8 73-110, looked up) [Urocortin II (mouse), Q99ML8 73-110] | 0.18 nM | – | –

Further binders by falling Ki [2], results first:

Row | cAMP accumulation in A7r5 rat aortic smooth muscle cells, EC50 [1] | Ki [2] | Ki [3] | Binder
4 | – | 2.1 nM | 0.66 nM | VILSLDVPIGLLRILLEQARYKAARNQAATNAQILAHV (peptide, UniProt Q99ML8 73-110, looked up) [Urocortin II (mouse)]
5 | – | 1.7 nM | 0.5 nM | IVLSLDVPIGLLQILLEQARARAAREQATTNARILARV (peptide, UniProt Q96RP3 72-109, looked up) [Urocortin II (human)]
